Target: T1, 新型冠状病毒S1蛋白 (纯化) (SARS-CoV-2, UniProt P0DTC2 14-685)
T1 construct: domain: S1
Assay: ELISA, purified IgG on coated S1 protein

B1: 人源抗新冠病毒中和性抗体nCoV-121 全抗体IgG (antibody)
light: NFMLTQPHSVSESPGKTVTISCTRSSGSIASNYVQWYQQRPGSSPTTVIYEDNQRPSGVPDRFSGSIDSSSNSASLTISGLKTEDEADYYCQSYDSSNQWVFGGGTKLTVLGQPKAAPSVTLGQPKAAPSVTLFPPSSEELQANKATLVCLISDFYPGAVTVAWKADSSPVKAGVETTTPSKQSNNKYAASSYLSLTPEQWKSHRSYSCQVTHEGSTVEKTVAPTECS
heavy: not shown
dilution still ELISA-positive: ≥ 64000 fold dilution from 0.2mg/ml

From patent CN112409479A (INST FOR VIRAL DISEASE CONTROL AND PREVENTION CHINESE …, dated 2021)
